# The RNAGym collection of RNA variant scans (doi:10.1093/nar/gkz1192)
# B1: CPEB3 Ribozyme (parent)
# chain: UAACAGGGGGCCACAGCAGAAGCGUUCACGUCGCAGCCCCUGUCAGAUUCUGGUGAAUCUGCGAAUUCUGCUGUAUAUCUC
# Variants of: B1
# Experiment: self-cleavage, relative activity (ratio to wild type); higher = more cleavage; in vitro, sequencing
# Method in brief: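 After error-prone PCR and barcoding, CPEB3 ribozyme mutant libraries were transcribed with T7 RNA polymerase at 37°C for 5 hours, then given 15 min with DNase I before an EDTA stop, and they cleaved during both steps. Reverse transcription with template switching preceded Illumina sequencing. Relative activity divides a variant's cleaved/total read fraction by the unmutated ribozyme's. At least 5 reads were required per variant, and three batches were averaged.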
row,Variant,self-cleavage
1,U25C C37A,0.46
2,U25C C37U,0.19
3,G24C U69A,0
4,G24C U69C,0.17
5,U25A C34A,0.4
6,U25A C34U,0.56
7,U25C A28U,0.25
8,U25C A28C,0.15
9,U25C A28G,0.28
10,U25A U49C,0.22
11,U25A U49A,0.19
12,U25A U49G,0.19
13,U25A U78A,0.19
14,U25A U78G,0.37
15,U25A U78C,0.13
16,U25A A64U,0.19
17,U25A A64G,0.33
18,G24A U66A,0.3
19,G24A U66C,0.39
20,U25A G53A,0.28
21,G24C U31C,0.1
22,G24C U31G,0.34
23,G24C U31A,0.19
24,U25C C34U,0.25

row,Variant,self-cleavage
1,U25C C34G,0.27
2,U25C C44U,0.23
3,U25A A65G,0.28
4,U25A A65C,0.08
5,U25C C38G,0.19
6,U25C C38A,0.18
7,U25C C38U,0.68
8,U25A C40A,0.22
9,G24U U67C,0.1
10,G24U U67A,0.16
11,U25C C50U,0.27
12,U25C C50A,0.09
13,U25C C50G,0.37
14,G24C U48C,0.22
15,G24U U48C,0.12
16,G24U C38U,0.1
17,G24A A56G,0.13
18,G24A A56U,0.37
19,G24A U43A,0.17
20,G24A U43C,0.32
21,G24U U49A,0.23
22,G24A G52U,0.37
23,G24A G52A,0.21
24,U25A,0.3

row,Variant,self-cleavage
1,U25C,0.29
2,U25A U48A,0.32
3,U25A U48C,0.3
4,G24A A28U,0.14
5,G24A A28G,0.25
6,U25A U67C,0.19
7,U25A U67A,0.46
8,U25C C39G,0.15
9,U25C C39U,0.2
10,U25C C39A,0.23
11,G24U U80C,0.41
12,G24U U80A,0.22
13,G24A C37A,0.17
14,G24C G42A,0.32
15,G24U U60A,0.16
16,G24A U78C,0.33
17,G24A U78A,0.07
18,G24A U78G,0.16
19,G24A A47G,0.27
20,G24A A47U,0.21
21,G24A G53A,0.53
22,G24A C32A,0.29
23,U25C C32A,0.22
24,U25C C32U,0.14

row,Variant,self-cleavage
1,G24A A35G,0.38
2,G24A A35U,0.17
3,G24A U25C,0.25
4,G24A U25A,0.26
5,G24A U41A,0.21
6,G24A U41C,0.3
7,G24A U41G,0.12
8,G24A C27A,0.18
9,G24A C27U,0.3
10,U25C A57U,0.31
11,U25C A57C,0.1
12,U25C A57G,0.28
13,U25A G46A,0.15
14,G24U A35G,0.9
15,G24U A35U,0.19
16,G24A U48C,0.22
17,U25A C81U,0.57
18,G24U A77U,0.15
19,U25A G70U,0.06
20,U25A G70C,0.07
21,U25A U72C,0.22
22,U25A U72G,0.06
23,U25A U72A,0.3
24,G24C G61A,0.18

row,Variant,self-cleavage
1,C23U U78C,0.27
2,G24A U67A,0.18
3,G24A U67C,0.22
4,G24A A45U,0.25
5,G24A A45G,0.24
6,G24A A45C,0.36
7,U25A A57U,0.18
8,U25A A57G,0.3
9,G24A U26C,0.3
10,G24A U26A,0.16
11,G24A U76C,0.26
12,U25C A64C,0.45
13,U25C A64U,0.26
14,U25C A64G,0.3
15,G24C G30C,0.11
16,G24U U41A,0.23
17,G24A U58C,0.12
18,G24A U58A,0.34
19,G24U U58C,0.17
20,U25A U66A,0.31
21,U25A U66C,0.23
22,C23U U74C,0.76
23,C23U U74A,0.58
24,C23U U80G,0.26

row,Variant,self-cleavage
1,C23U U80A,0.28
2,G24A U51A,0.15
3,G24A U51C,0.31
4,G24A U51G,0.11
5,G24C U49C,0.46
6,G24A G42A,0.12
7,U25A G42U,0.28
8,U25A G42A,0.2
9,G24A A75U,0.25
10,G24A A75G,0.32
11,U25A U74C,0.33
12,U25A U74A,0.25
13,U25C A56U,0.24
14,U25C A56C,0.25
15,U25C A56G,0.25
16,U25A A77G,0.18
17,U25A A77C,0.19
18,U25A A77U,0.23
19,G24A C68A,0.07
20,G24A C62U,0.18
21,U25A C44A,0.17
22,U25A C62U,0.19
23,U25A C62G,0.39
24,U25A C62A,0.16

row,Variant,self-cleavage
1,U25A G52A,0.22
2,U25A G52C,0.27
3,G24U U31C,0.37
4,G24C U76C,0.2
5,G24C U66C,0.26
6,G24A U60G,0.13
7,G24A U60A,0.28
8,G24A U60C,0.24
9,G24C U60A,0.45
10,G24A C40U,0.1
11,G24A C81A,0.16
12,G24C U80C,0.36
13,G24U U72C,0.52
14,G24U U72A,0.11
15,G24C U54A,0.13
16,G24C U54C,0.14
17,G24A G73A,0.14
18,G24A G73C,0.4
19,U25A A45U,0.19
20,U25A A45C,0.6
21,U25A A45G,0.27
22,G24C A75U,0.33
23,U25C A77C,0.3
24,U25C A77U,0.26

row,Variant,self-cleavage
1,U25C A77G,0.27
2,U25A A35C,0.2
3,U25A A35G,0.31
4,U25A A35U,0.29
5,U25C A35U,0.24
6,U25C A35G,0.31
7,U25C A75U,0.34
8,U25C A75C,0.35
9,U25C A75G,0.23
10,G24A G30A,0.24
11,U25C A45U,0.28
12,U25C A45G,0.26
13,U25C A45C,0.18
14,G24A A57C,0.15
15,G24A A57G,0.15
16,G24U U54C,0.17
17,G24A C29G,0.21
18,U25A U69A,0.27
19,U25A U69C,0.25
20,G24C A77U,0.09
21,G24C A77G,0.3
22,G24A G46A,0.2
23,G24C A47G,0.48
24,G24A A65G,0.28

row,Variant,self-cleavage
1,C23U U69C,0.19
2,C23U U69A,0.1
3,U25A U26A,0.39
4,U25A U26G,0.29
5,U25A U26C,0.28
6,U25A U80G,0.22
7,U25A U80A,0.45
8,U25A U80C,0.33
9,G24U A75G,0.08
10,U25A G30C,0.26
11,U25A G30A,0.13
12,G24U A28G,0.17
13,U25A G33C,0.19
14,G24A G55A,0.1
15,U25A U58C,0.29
16,U25A U58A,0.27
17,U25A U58G,0.1
18,U25A A75G,0.23
19,U25A A75U,0.32
20,G24A U31A,0.2
21,G24A U31C,0.15
22,G24A C44U,0.18
23,G24C U51A,0.3
24,G24C U51C,0.32

row,Variant,self-cleavage
1,G24A C71G,0.09
2,G24A C71U,0.36
3,G24U A64U,0.3
4,G24U A64G,0.18
5,U25A A47G,0.33
6,U25A A47U,0.27
7,G24U A45C,0.22
8,G24U A45U,0.18
9,G24C U43A,0.54
10,G24C U43C,0.18
11,U25A U60C,0.21
12,U25A U60A,0.29
13,U25A U41A,0.44
14,U25A U41C,0.28
15,U25A U41G,0.22
16,U25A A56U,0.27
17,U25A A56G,0.27
18,C23U U76C,0.4
19,C23U U76A,0.22
20,C23U U72G,0.1
21,C23U U72A,0.22
22,C23U U72C,0.48
23,U25A U31A,0.16
24,U25A U31C,0.17

row,Variant,self-cleavage
1,G24C A45U,0.13
2,G24C A45G,0.21
3,G24A U74A,0.18
4,G24A U74G,0.13
5,U25A C38A,0.18
6,U25A C38U,0.23
7,U25A C50A,0.41
8,U25A C29U,0.22
9,U25A C29G,0.25
10,G24A U49A,0.39
11,G24A U49C,0.21
12,G24A,0.27
13,G24U,0.3
14,G24C,0.31
15,G24C A28G,0.41
16,G24C A28U,0.28
17,U25A C59U,0.09
18,U25A G63U,0.2
19,U25A G63A,0.28
20,G24A G61C,0.09
21,G24A G61A,0.19
22,U25A U76C,0.32
23,U25A U76A,0.25
24,G24U U76A,0.4

row,Variant,self-cleavage
1,U25A C37U,0.34
2,G24A G36A,0.15
3,G24A G36U,0.1
4,G24U U51C,0.2
5,G24U U51A,0.1
6,G24A A64U,0.28
7,G24A A64G,0.36
8,U25A C27U,0.15
9,U25C A65G,0.3
10,U25C A65U,0.28
11,U25C A65C,0.45
12,G24C U72A,0.19
13,G24C U72C,0.15
14,G24C U72G,0.2
15,G24C G63A,0.18
16,U25A C68A,0.19
17,U25A C79U,0.27
18,G24A A77G,0.23
19,G24A A77U,0.46
20,U25A A28G,0.28
21,U25A A28U,0.52
22,U25A A28C,0.39
23,G24U C44A,0.18
24,G24U U25A,0.3

row,Variant,self-cleavage
1,G24U A47G,0.31
2,G24C A57G,0.11
3,G24C A57U,0.11
4,G24C U58C,0.2
5,U25C C40A,0.15
6,U25C C40U,0.19
7,U25C A47U,0.23
8,U25C A47G,0.27
9,G24C G73A,0.16
10,G24C U67C,0.11
11,G24C U67A,0.21
12,G24A U80C,0.59
13,G24A U80A,0.24
14,U25A C32A,0.16
15,U25A C32U,0.38
16,G24C A35G,0.1
17,U25A U51C,0.23
18,U25A U51A,0.33
19,U25C C29U,0.47
20,U25C C29G,0.24
21,U25C C29A,0.3
22,U25A U43C,0.28
23,U25A U43A,0.21
24,G24A U54A,0.25

row,Variant,self-cleavage
1,G24A U54G,0.15
2,G24A U54C,0.27
3,U25A G73A,0.36
4,G24C U25A,0.21
5,G24A C39U,0.17
6,G24A U69G,0.13
7,G24A U69C,0.32
8,G24A U69A,0.25
9,G24U U26C,0.11
10,G24C C29A,0.23
11,G24A U72C,0.25
12,G24A U72A,0.29
13,U25A U54C,0.27
14,U25A U54G,0.2
15,U25A U54A,0.26
16,U25A G61U,0.18
17,U25A G61A,0.23
18,U25C C27A,0.41
19,U25C C27U,0.36
20,G24A G63C,0.16
21,G24A G63A,0.37
22,G24C A64G,0.45
